The results in this text go back to article doi:10.1101/2023.05.01.538945.

In assay [1] the target is Bacillus cereus VD045 GajB (Gabija protein B), untagged, co-expressed with GajA (Bacillus cereus VD045) (UniProt J8HQ06). The assay is described as follows: crystal structure.
Assay [2] has as its target Bacillus phage Phi3T Gabija anti-defense 1 (Gad1) (Bacillus phage Phi3T). The assay can be described thus: cryo-EM structure.
The target of assay [3] is SUMO2-tagged Bacillus cereus VD045 GajAB complex (Bacillus cereus VD045) (UniProt J8H9C1). The assay can be described thus: cryo-EM structure.

A word on the stoichiometry N: it is a count of units in the complex or per binding partner.

Bacillus phage Phi3T Gabija anti-defense 1 (Gad1) (natural protein), sequence (A0A1P8CWZ3 whole entry): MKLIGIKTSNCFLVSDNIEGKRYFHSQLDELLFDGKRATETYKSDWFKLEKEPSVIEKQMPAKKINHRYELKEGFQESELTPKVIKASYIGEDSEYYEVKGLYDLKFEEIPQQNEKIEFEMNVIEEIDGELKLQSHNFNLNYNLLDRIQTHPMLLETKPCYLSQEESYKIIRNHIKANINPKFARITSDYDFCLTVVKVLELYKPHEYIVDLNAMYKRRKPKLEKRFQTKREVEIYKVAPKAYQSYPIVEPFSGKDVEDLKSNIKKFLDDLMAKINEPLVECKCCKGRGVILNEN
SUMO2-tagged Bacillus cereus VD045 GajAB complex (Bacillus cereus VD045), sequence (J8H9C1 2-578, chain 1 of 2): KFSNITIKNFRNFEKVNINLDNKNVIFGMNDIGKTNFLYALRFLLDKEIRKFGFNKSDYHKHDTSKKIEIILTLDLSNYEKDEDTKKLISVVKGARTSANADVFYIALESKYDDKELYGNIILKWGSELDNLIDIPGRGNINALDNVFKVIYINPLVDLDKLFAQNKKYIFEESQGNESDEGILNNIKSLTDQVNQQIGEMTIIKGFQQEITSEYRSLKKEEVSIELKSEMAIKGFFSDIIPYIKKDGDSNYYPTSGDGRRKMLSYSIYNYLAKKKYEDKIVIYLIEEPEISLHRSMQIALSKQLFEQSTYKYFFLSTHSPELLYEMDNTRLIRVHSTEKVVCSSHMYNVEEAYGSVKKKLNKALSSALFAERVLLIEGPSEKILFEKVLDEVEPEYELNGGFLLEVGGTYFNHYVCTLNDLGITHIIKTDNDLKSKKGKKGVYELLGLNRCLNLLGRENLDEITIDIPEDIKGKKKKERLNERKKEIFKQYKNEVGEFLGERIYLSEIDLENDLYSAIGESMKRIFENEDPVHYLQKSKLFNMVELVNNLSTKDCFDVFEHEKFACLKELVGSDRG
SUMO2-tagged Bacillus cereus VD045 GajAB complex (Bacillus cereus VD045), sequence (J8HQ06 2-494, chain 2 of 2, further chain): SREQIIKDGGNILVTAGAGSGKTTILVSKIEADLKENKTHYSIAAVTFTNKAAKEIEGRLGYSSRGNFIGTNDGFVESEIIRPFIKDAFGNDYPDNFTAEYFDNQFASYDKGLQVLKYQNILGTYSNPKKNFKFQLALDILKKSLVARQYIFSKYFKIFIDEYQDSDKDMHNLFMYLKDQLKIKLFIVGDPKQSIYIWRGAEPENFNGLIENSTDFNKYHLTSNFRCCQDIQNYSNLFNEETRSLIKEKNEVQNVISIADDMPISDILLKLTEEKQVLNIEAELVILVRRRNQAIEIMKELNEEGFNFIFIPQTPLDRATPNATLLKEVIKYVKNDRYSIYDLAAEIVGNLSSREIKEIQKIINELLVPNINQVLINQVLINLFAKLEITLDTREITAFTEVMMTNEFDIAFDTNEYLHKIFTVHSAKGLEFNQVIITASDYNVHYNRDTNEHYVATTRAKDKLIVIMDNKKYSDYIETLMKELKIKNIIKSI

For the substance “Bacillus cereus VD045 GajB (Gabija protein B), untagged, co-expressed with GajA (from UniProt J8HQ06 2-494) (enzyme)”, the stoichiometry N in assay [1] amounted to 2.

In assay [2], “Bacillus phage Phi3T Gabija anti-defense 1 (Gad1) (natural protein)” showed a stoichiometry N of 8. For the same substance, in assay [3], the stoichiometry N (Gad1 per 4:4 GajAB assembly) amounted to 8.
